Data published in the RNAGym collection of RNA variant scans (doi:10.1093/molbev/msab373).

B1: Azoarcus group I ribozyme (parent)
chain: GUGCCUUGCGCCGGGAAACCACGCAAGGGAUGGUGUCAAAUUCGGCGAAACCUAAGCGCCCGCCCGGGCGUAUGGCAACGCCGAGCCAAGCUUCGGCGCCUGCGCCGAUGAAGGUGUAGAGACUAGACGGCACCCACCUAAGGCAAACGCUAUGGUGAAGGCAUAGUCCAGGGAGUGGCGAAAGUCACACAAACCGG

Variants of: B1
Assay: reverse-splicing fitness (ratio to wild type); higher = more active; in vitro selection; Mg2+ level not given
Outline: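 An in vitro group I ribozyme library with randomized positions was T7-transcribed and gel-purified. In triplicate, 10 pmol RNA in EPPS pH 7.5 was reacted with 50 pmoles of a 30-nt RNA substrate for 1 h at 37 °C across several added MgCl2 levels (1–48 mM), then stopped with EDTA. Products were reverse transcribed from a substrate-complementary primer, PCR-amplified and sequenced (HiSeq 4000). Fitness is a variant's read proportion after selection over that before, normalised to wild type.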

Row | Variant | reverse-splicing fitness
1 | GUGCCUUGCGCCGGGAAACCACGCAAGGGAUGGUGUCAAAUUCGGCGAAACCUAAGCGCCCGCCCGGGCGUAUGGCAACGCUGAGCCAAGCUUCGGCGCCUGCGCCGAUGCAGGUGUAGCGACUAGACGGCACCCACCUAAGGCGAACGCUAUGGUGAAGGCAUAGUCGAGGGAGCGGCGAAAGUCACACAAACCGG [C82U A111C A120C A145G C169G U176C] | 0.0254
2 | GUGCCUUGCGCCGGGAAACCACGCAAGGGAUGGUGUCAAAUUCGGCGAAACCUAAGCGCCCGCCCGGGCGUAUGGCAACGCUGAGCCAAGCUUCGGCGCCUGCGCCGAUGCAGGUGUAGCGACUAGACGGCACCCACCUAAGGCGAACGCUAUGGUGAAGGCAUAGUCGAGGGAGGGGCGAAAGUCACACAAACCGG [C82U A111C A120C A145G C169G U176G] | 0.0058
3 | GUGCCUUGCGCCGGGAAACCACGCAAGGGAUGGUGUCAAAUUCGGCGAAACCUAAGCGCCCGCCCGGGCGUAUGGCAACGCUGAGCCAAGCUUCGGCGCCUGCGCCGAUGCAGGUGUAGCGACUAGACGGCACCCACCUAAGGCGAACGCUAUGGUGAAGGCAUAGUCUAGGGAGUGGCGAAAGUCACACAAACCGG [C82U A111C A120C A145G C169U] | 0.0129
4 | GUGCCUUGCGCCGGGAAACCACGCAAGGGAUGGUGUCAAAUUCGGCGAAACCUAAGCGCCCGCCCGGGCGUAUGGCAACGCUGAGCCAAGCUUCGGCGCCUGCGCCGAUGCAGGUGUAGCGACUAGACGGCACCCACCUAAGGCGAACGCUAUGGUGAAGGCAUAGUCUAGGGAGAGGCGAAAGUCACACAAACCGG [C82U A111C A120C A145G C169U U176A] | 0.0159
5 | GUGCCUUGCGCCGGGAAACCACGCAAGGGAUGGUGUCAAAUUCGGCGAAACCUAAGCGCCCGCCCGGGCGUAUGGCAACGCUGAGCCAAGCUUCGGCGCCUGCGCCGAUGCAGGUGUAGCGACUAGACGGCACCCACCUAAGGCGAACGCUAUGGUGAAGGCAUAGUCUAGGGAGCGGCGAAAGUCACACAAACCGG [C82U A111C A120C A145G C169U U176C] | 0.0159
6 | GUGCCUUGCGCCGGGAAACCACGCAAGGGAUGGUGUCAAAUUCGGCGAAACCUAAGCGCCCGCCCGGGCGUAUGGCAACGCUGAGCCAAGCUUCGGCGCCUGCGCCGAUGCAGGUGUAGCGACUAGACGGCACCCACCUAAGGCGAACGCUAUGGUGAAGGCAUAGUCUAGGGAGGGGCGAAAGUCACACAAACCGG [C82U A111C A120C A145G C169U U176G] | 0.00573
7 | GUGCCUUGCGCCGGGAAACCACGCAAGGGAUGGUGUCAAAUUCGGCGAAACCUAAGCGCCCGCCCGGGCGUAUGGCAACGCUGAGCCAAGCUUCGGCGCCUGCGCCGAUGCAGGUGUAGCGACUAGACGGCACCCACCUAAGGCGAACGCUAUGGUGAAGGCAUAGUCCAGGGAGAGGCGAAAGUCACACAAACCGG [C82U A111C A120C A145G U176A] | 0.0134
8 | GUGCCUUGCGCCGGGAAACCACGCAAGGGAUGGUGUCAAAUUCGGCGAAACCUAAGCGCCCGCCCGGGCGUAUGGCAACGCUGAGCCAAGCUUCGGCGCCUGCGCCGAUGCAGGUGUAGCGACUAGACGGCACCCACCUAAGGCGAACGCUAUGGUGAAGGCAUAGUCCAGGGAGCGGCGAAAGUCACACAAACCGG [C82U A111C A120C A145G U176C] | 0.0243
9 | GUGCCUUGCGCCGGGAAACCACGCAAGGGAUGGUGUCAAAUUCGGCGAAACCUAAGCGCCCGCCCGGGCGUAUGGCAACGCUGAGCCAAGCUUCGGCGCCUGCGCCGAUGCAGGUGUAGCGACUAGACGGCACCCACCUAAGGCGAACGCUAUGGUGAAGGCAUAGUCCAGGGAGGGGCGAAAGUCACACAAACCGG [C82U A111C A120C A145G U176G] | 0.00588
10 | GUGCCUUGCGCCGGGAAACCACGCAAGGGAUGGUGUCAAAUUCGGCGAAACCUAAGCGCCCGCCCGGGCGUAUGGCAACGCUGAGCCAAGCUUCGGCGCCUGCGCCGAUGCAGGUGUAGCGACUAGACGGCACCCACCUAAGGCUAACGCUAUGGUGAAGGCAUAGUCCAGGGAGUGGCGAAAGUCACACAAACCGG [C82U A111C A120C A145U] | 0.028
11 | GUGCCUUGCGCCGGGAAACCACGCAAGGGAUGGUGUCAAAUUCGGCGAAACCUAAGCGCCCGCCCGGGCGUAUGGCAACGCUGAGCCAAGCUUCGGCGCCUGCGCCGAUGCAGGUGUAGCGACUAGACGGCACCCACCUAAGGCUAACGAUAUGGUGAAGGCAUAGUCCAGGGAGUGGCGAAAGUCACACAAACCGG [C82U A111C A120C A145U C150A] | 0.0082
12 | GUGCCUUGCGCCGGGAAACCACGCAAGGGAUGGUGUCAAAUUCGGCGAAACCUAAGCGCCCGCCCGGGCGUAUGGCAACGCUGAGCCAAGCUUCGGCGCCUGCGCCGAUGCAGGUGUAGCGACUAGACGGCACCCACCUAAGGCUAACGAUAUGGUGAAGGCAUAGUCAAGGGAGUGGCGAAAGUCACACAAACCGG [C82U A111C A120C A145U C150A C169A] | 0.00776
13 | GUGCCUUGCGCCGGGAAACCACGCAAGGGAUGGUGUCAAAUUCGGCGAAACCUAAGCGCCCGCCCGGGCGUAUGGCAACGCUGAGCCAAGCUUCGGCGCCUGCGCCGAUGCAGGUGUAGCGACUAGACGGCACCCACCUAAGGCUAACGAUAUGGUGAAGGCAUAGUCAAGGGAGAGGCGAAAGUCACACAAACCGG [C82U A111C A120C A145U C150A C169A U176A] | 0.0117
14 | GUGCCUUGCGCCGGGAAACCACGCAAGGGAUGGUGUCAAAUUCGGCGAAACCUAAGCGCCCGCCCGGGCGUAUGGCAACGCUGAGCCAAGCUUCGGCGCCUGCGCCGAUGCAGGUGUAGCGACUAGACGGCACCCACCUAAGGCUAACGAUAUGGUGAAGGCAUAGUCAAGGGAGCGGCGAAAGUCACACAAACCGG [C82U A111C A120C A145U C150A C169A U176C] | 0.00844
15 | GUGCCUUGCGCCGGGAAACCACGCAAGGGAUGGUGUCAAAUUCGGCGAAACCUAAGCGCCCGCCCGGGCGUAUGGCAACGCUGAGCCAAGCUUCGGCGCCUGCGCCGAUGCAGGUGUAGCGACUAGACGGCACCCACCUAAGGCUAACGAUAUGGUGAAGGCAUAGUCAAGGGAGGGGCGAAAGUCACACAAACCGG [C82U A111C A120C A145U C150A C169A U176G] | 0.00614
